Columns and labels:
[1] = Thermostability: mid-point thermal denaturation temperature (Tm) from temperature-dependent fluorescence (Roche LightCycler); assay type: physicochemical; details: Acrylodan conjugate; apo-protein
Description: Protein (un)folding is monitored by binding of SYPRO to the unfolded state as a function of temperature. Fluorescence intensity increases upon binding of SYPRO by the unfolded state.
Panels A-C: ttGBP182C.2.0-Imm0; Panels D-F: ttGBP182C.2.0-Imm1 (see FIG. 13). (A) Solution (Tm=347.6K). (B) Immobilized on Nickel-nitriloacetic acid (Ni-NTA) beads (Tm=346.7K). (C) Reconstituted, desiccated Ni-NTA beads (Tm=347.6K). (D) Fluorescence response of ttGGBP5.2 Imm1 immobilized on NHS-functionalized agarose beads. Data was collected on a Roche LightCycler real-time PCS instrument, recording emission intensities at 488 nm and 510 nm as a function of temperature in a 384-well microtiter plate. […] Temperature melts of twelve different wells. Apo protein thermostability as reported by the denaturation mid-point temperature is 349 K, similar to the protein free in solution. […] (F) Representative Langmuir ligand-binding curve extracted from the three-dimensional data.
Temperatures were advanced in 1K steps. […] Under these experimental photobleaching was not observed.

[2] = Glucose binding: isothermal fluorescence titrations, ratiometric (appKd) and monochromatic (trueKd) fits; details: Acrylodan conjugate, room temperature
Description: 2 For a single glucose-binding site, the fractional saturation is given by
[formula] where ^apoIλ2 and ^satIλ2 are the emission intensities of the monochromatic signal at wavelength λ2 of the ligand-free and ligand-bound protein, respectively.

[3] = Galactose binding: isothermal fluorescence titrations of conjugates; details: Acrylodan conjugate; for S, selectivity = trueKd(galactose)/trueKd(glucose): S > 1, selective for glucose; for Kd: read-out: Galactose trueKd, monochromatic titration curves, room temperature
[4] = read-out: Glucose appKd, dichromatic ratiometry
[5] = read-out: Glucose trueKd, monochromatic titration curves

| Kd [2, 4] [mM] | Kd [2, 5] [mM] | S, selectivity = trueKd(galactose)/trueKd(glucose) [3] | Kd [3] [mM] | Molecule | apoTm [1] [K] |
| --- | --- | --- | --- | --- | --- |
| 4.5 | 6 | 3.1 | 18.5 | ttGGBP182C.2.0: affinity-tuning mutant, 182C background (R91K, Q148E), SEQ ID NO: 88 and 298 (protein, ttGGBP182C.2.0 (affinity-tuning mutant, 182C background (Table 6) with signal peptide replaced with M and GGSHHHHHH at C-terminus)) MKQLNIGVAIYKFDDTFMTGVRNAMTAEAQGKAKLNMVDSQNSQPTQNDQVDLFITKKMNALAINPVDRTAAGTIIDKAKQANIPVVFFNKEPLPEDMKKWDKVYYVGAKAEQSGILQGQIMADYWKAHPEADKNHDGVMQYVMLMGEPGHQDAILRTQYSIQTVKDAGIKVQELAKDYANCDRVTAHDKMAAWLSSFGDKIEAVFANNDDMALGAIEALKSAGYFTGNKYIPVVGVDATAPGIQAIKDGTLLGTVLNDAKNQAKATFNIAYELAQGITPTKDNIGYDITDGKYVWIPYKKITKDNISDAEQGGSHHHHHH | 346 |
| 16.3 | 19 | 10.9 |  | ttGGBP182C.2.3: affinity-tuning mutant, 182C background, SEQ ID NO: 90 (protein, ttGGBP182C.2.3 (affinity-tuning mutant, 182C background (Table 6) with signal peptide replaced with M and GGSHHHHHH at C-terminus)) MKQLNIGVAIYKFDDTFMTGVRNAMTAEAQGKAKLNMVDSQNSQPTQNDQVDLFITKKMNALAINPVDRTAAGTIIDKAKQANIPVVFFNKEPLPEDMKKWDKVYYVGAKAEQSGILQGQIMADYWKAHPEADKNHDGVMQYVMLMGEPGHQDNILRTQYSIQTVKDAGIKVQELAKDYANCDRVTAHDKMAAWLSSFGDKIEAVFANNDDMALGAIEALKSAGYFTGNKYIPVVGVDATAPGIQAIKDGTLLGTVLNDAKNQAKATFNIAYELAQGITPTKDNIGYDITDGKYVWIPYKKITKDNISDAEQGGSHHHHHH | 346 |
| 3 | 4.1 | 3.2 | 13.1 | ttGGBP182C.2.1: affinity-tuning mutant, 182C background, SEQ ID NO: 89 (protein, ttGGBP182C.2.1 (affinity-tuning mutant, 182C background (Table 6) with signal peptide replaced with M and GGSHHHHHH at C-terminus)) MKQLNIGVAIYKFDDTFMTGVRNAMTAEAQGKAKLNMVDSQNSQPTQNDQVDLFITKKMNALAINPVDRTAAGTIIDKAKQANIPVVFFNKEPLPEDMKKWDKVYYVGAKAEQSGILQGQIMADYWKAHPEADKNHDGVMQYVMLMGEPGHQDSILRTQYSIQTVKDAGIKVQELAKDYANCDRVTAHDKMAAWLSSFGDKIEAVFANNDDMALGAIEALKSAGYFTGNKYIPVVGVDATAPGIQAIKDGTLLGTVLNDAKNQAKATFNIAYELAQGITPTKDNIGYDITDGKYVWIPYKKITKDNISDAEQGGSHHHHHH | 328 |
|  | 0.9 |  | 3.1 | ttGGBP182C.3: affinity-tuning mutant, 182C background, SEQ ID NO: 97 (protein, ttGGBP182C.3 (affinity-tuning mutant, 182C background (Table 6) with signal peptide replaced with M and GGSHHHHHH at C-terminus)) MKQLNIGVAIYKFDDTFMTGVRNAMTAEAQGKAKLNMVDSQNSQPTQNDQVDLFITKKMNALAINPVDRTAAGTIIDKAKQANIPVVFFNKEPLPEDMKKWDKVYYVGAKAEQSGILQGQIMADYWKAHPEADKNHDGVMQYVMLMGQPGHQDAILRTQYSIQTVKDAGIKVQELAKDYANCDRVTAHDKMAAWLSSFGDKIEAVFANNDDMALGAIEALKSAGYFTGNKYIPVVGVDATAPGIQAIKDGTLLGTVLNDAKNQAKATFNIAYELAQGITPTKDNIGYDITDGKYVWIPYKKITKDNISDAEQGGSHHHHHH | 346 |
| 19.2 | 17.9 | 2.9 | 52.6 | ttGGBP182C.2.6: affinity-tuning mutant, 182C background, SEQ ID NO: 93 (protein, ttGGBP182C.2.6 (affinity-tuning mutant, 182C background (Table 6) with signal peptide replaced with M and GGSHHHHHH at C-terminus)) MKQLNIGVAIYKFDDTFMTGVRNAMTAEAQGKAKLNMVDSQNSQPTQNDQVDLFITKKMNALAINPVDRTAAGTIIDKAKQANIPVVFFNKEPLPEDMKKWDKVYYVGAKAEQSGILQGQIMADYWKAHPEADKNHDGVMQYVMLMGEPGNQDAILRTQYSIQTVKDAGIKVQELAKDYANCDRVTAHDKMAAWLSSFGDKIEAVFANNDDMALGAIEALKSAGYFTGNKYIPVVGVDATAPGIQAIKDGTLLGTVLNDAKNQAKATFNIAYELAQGITPTKDNIGYDITDGKYVWIPYKKITKDNISDAEQGGSHHHHHH | 347 |
| 0.6 | 0.8 | 8.1 | 6.5 | ttGGBP182C.4: affinity-tuning mutant, 182C background, SEQ ID NO: 98 (protein, ttGGBP182C.4 (affinity-tuning mutant, 182C background (Table 6) with signal peptide replaced with M and GGSHHHHHH at C-terminus)) MKQLNIGVAIYKFDDTFMTGVRNAMTAEAQGKAKLNMVDSQNSQPTQNDQVDLFITKKMNALAINPVDRTAAGTIIDKAKQANIPVVFFNREPLPEDMKKWDKVYYVGAKAEQSGILQGQIMADYWKAHPEADKNHDGVMQYVMLMGEPGHQDAILRTQYSIQTVKDAGIKVQELAKDYANCDRVTAHDKMAAWLSSFGDKIEAVFANNDDMALGAIEALKSAGYFTGNKYIPVVGVDATAPGIQAIKDGTLLGTVLNDAKNQAKATFNIAYELAQGITPTKDNIGYDITDGKYVWIPYKKITKDNISDAEQGGSHHHHHH | 347 |
| 10.8 | 13 | 1.6 | 20.3 | ttGGBP182C.2.5: affinity-tuning mutant, 182C background, SEQ ID NO: 92 (protein, ttGGBP182C.2.5 (affinity-tuning mutant, 182C background (Table 6) with signal peptide replaced with M and GGSHHHHHH at C-terminus)) MKQLNIGVAIYKFDDTFMTGVRNAMTAEAQGKAKLNMVDSQNSQPTQNDQVDLFITKKMNALAINPVDRTAAGTIIDKAKQANIPVVFFNKEPLPEDMKKWDKVYYVGAKAEQSGILQGQIMADYWKAHPEADKNHDGVMQYVMLMGEPGQQDAILRTQYSIQTVKDAGIKVQELAKDYANCDRVTAHDKMAAWLSSFGDKIEAVFANNDDMALGAIEALKSAGYFTGNKYIPVVGVDATAPGIQAIKDGTLLGTVLNDAKNQAKATFNIAYELAQGITPTKDNIGYDITDGKYVWIPYKKITKDNISDAEQGGSHHHHHH | 346 |

Reference: patent US11156615B2 (priority 2015, dated 2021)
